± gives the uncertainty stated by the source.

A short description of this series: amyloid nucleation score (Sup35N fusion, yeast selection) (log enrichment); library NNK3; higher = more nucleation; inactive = no reads after selection. A digest of the protocol:
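The nucleation score equals the log enrichment of output over input reads from DiMSum, centred on the mode score of non-aggregating sequences. It was computed only for sequences with 100 or more input reads. The reads came from Illumina sequencing of plasmid inserts from psi-negative yeast expressing Sup35N fused to peptides of 20 random codons, induced with 100 μM copper sulfate for 24 hours and grown 7 days at 30°C without adenine and uracil.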
On to FMIYYLGLFRR, for which the amyloid nucleation score entry is “inactive”.

For the substance KYIIWLLDDSDLI, the amyloid nucleation score entry was “inactive”. Take AQSYSCFRNHFTDAVVCVFS: the amyloid nucleation score is -0.496 ± 1.5.

LYVVVASMVGLDASRP displayed an amyloid nucleation score of 0.266 ± 0.38. For the substance EGSSSLYCSELRFV, the amyloid nucleation score result was “inactive”. The same measure for LDGGMNNRR: “inactive”; for LVYTVNLWNALIFHLD: 0.527 ± 0.22; for CTLQYWGKIIPNERSRSRIV: “inactive”.

Turning to NVRLYHFSGET, the amyloid nucleation score amounted to 0.031 ± 0.41.

Turning to WYFWVFCSFKLENCAPVNQW, the amyloid nucleation score entry is “inactive”. Then SNSFLFYFEYSGVKLRRLGL, with “inactive”; and YRWAFRWRLG, with “inactive”; and YCMVKL, with “inactive”.

As for NFSCSSRNRWMCMDVGKVCR, the amyloid nucleation score is -0.287 ± 0.34. FLAMSSASMFRYFKPVASSE gave an amyloid nucleation score of 2.91 ± 0.066. As for YLLKCYVMSDRSMSTCVQLE, the amyloid nucleation score result is “inactive”.

Consider QLVRQMTKGVG, for which the amyloid nucleation score result is “inactive”. Take YVVEICAV: the amyloid nucleation score entry is “inactive”. Take KGTPGLDFTAADPGVIAL: the amyloid nucleation score entry was “inactive”. Take SEGSNNVSCSI: the amyloid nucleation score result was “inactive”. Consider SGVKFSYNWQR, for which the amyloid nucleation score entry is “inactive”. Turning to STHKFNRNFIMSFAWLFICW, the amyloid nucleation score entry was “inactive”. Then YAYVQRVYLACSINLMCLWY, with “inactive”. For the substance KPPQNILVDMRLEGSMC, the amyloid nucleation score result was “inactive”.

In the case of FISSLSRSFL, the amyloid nucleation score entry was “inactive”. Turning to VQNNFGVSNAGNGLCWGCIC, the amyloid nucleation score was 2.65 ± 0.051.

Substance NYVVIPRFMYLVQIYLKVFW displayed an amyloid nucleation score of -0.064 ± 0.8. On to SWYSMGNP, for which the amyloid nucleation score was found to be 1.04 ± 0.14. As for VDEADVRKHMT, the amyloid nucleation score result was “inactive”.

Turning to FLYDVFPSPGLMMVLWFGLC, the amyloid nucleation score entry is “inactive”. Consider LSYHTCSVMYALRMSALDCR, for which the amyloid nucleation score result is “inactive”.

Turning to RLLHSGRS, the amyloid nucleation score entry was “inactive”. Consider MKVIRTYRGYGCQDWIELLF, for which the amyloid nucleation score entry was “inactive”. As for FAGCTVGLTNYKRLWICVN, the amyloid nucleation score came to 0.092 ± 0.72.

SWNRYTLRLSPSGFLVKVSL: the amyloid nucleation score result was “inactive”. For the substance KALSSDPTICFRRAFIVHCK, the amyloid nucleation score result was “inactive”. The same measure for AFDYLVV: “inactive”; for DSHFKVYVPRQLREAREPVK: “inactive”. For HGLRALLRSLSLYLVLCFTV, the amyloid nucleation score entry is “inactive”. For the substance WYHVSHVYYGVGIGLRD, the amyloid nucleation score entry is “inactive”. On to AMIFAICCLNNQESVGVRRT, for which the amyloid nucleation score came to 2.49 ± 0.071.

Turning to TTSNMGVVHYL, the amyloid nucleation score result is “inactive”. The same measure for GMLPTGRYDRAYSFWGNWRR: 1.08 ± 0.18; for WDVYLPLVMSLK: 1.29 ± 0.12; for TKYTNPHERSIEMSLFRERQ: “inactive”.

IVLSNVRVGIACGDLC showed an amyloid nucleation score of 0.182 ± 0.44. As for CNFERFALCDYLSVLFNFQR, the amyloid nucleation score came out at 1.54 ± 0.13.

Consider LVLDCMIMGMIIDSWYWPLN, for which the amyloid nucleation score entry is “inactive”. As for KKLHALESCA, the amyloid nucleation score result was “inactive”. Consider SLGSPYRTRGCLNKSPPLAC, for which the amyloid nucleation score entry is “inactive”. On to LSGENQLG, for which the amyloid nucleation score entry was “inactive”. Regarding TTPYWRRECRWSEFGFA, the amyloid nucleation score entry was “inactive”. As to GYRYTVHGIFEGVLWLTSAG, the amyloid nucleation score result was “inactive”. Then VSRCRVHKFTGYC, with -0.441 ± 0.8.

In the case of MIVHWMVHSRLVHKAVVGDG, the amyloid nucleation score entry was “inactive”.

Values taken from the supplement of paper PMC12042874.
